Test results reported in the supplement of paper PMC12636428.

Tested on: Saccharomyces cerevisiae
Assay: transcriptional activation domain activity (GFP:mCherry ratio, weighted mean of sorted bins, harmonized to initial dataset scale) (arbitrary fluorescence ratio units); higher = stronger transcriptional activation
Conditions: beta-estradiol 1 µM; induction time 4 h
Summary of the method: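 Activation activity, the read-weighted mean of bin median fluorescence averaged across barcodes, was linearly mapped onto the scale of the initial dataset. It was measured for barcoded protein tiles fused to an estradiol-inducible synthetic transcription factor at URA3 in GFP-reporter yeast diploids. Cultures diluted 1:5 into SC with 1 uM beta-estradiol were held 4 hours at 30 °C, sorted into 8 bins by GFP:mCherry ratio, and barcode-sequenced, and tiles under 50 reads were discarded.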

Sequence	transcriptional activation domain activity
EASPQPSPQPESQPAPEASPQPEPQPSSKPSPQPESQPVPEASPQPEPQPSPQ	18200
EARRSTREREREEGKSSGGGKGRRGRSGKPRGGGRGAGASGANPGPGAAAGAE	29100
SLSSSRVLGEHGNGPDGEGGFVHVSYRISLDEENELQMRVRPSERGGGEGVDG	39200
VLMDERISLKNDLSSQDVALFLSLASSVASGSLLLRPPNVWIVVWTYLHRRHG	66900
MEASFYFSSSSFCSAFLFFYFFILFFWGGFPLFPSQLFLSLSLLFIHTLSLFP	26700
GLAELAAALDDSDVQYAYARVEYANDAESKRVKFVLIVWIGSGTKVMRKGRAG	42200
DDTGEEEQPPPASNSSAGVATSTTVVPQQLPARYRLRAFISHKGPSVHSGHYV	29800
MGLWARFICFVIVCLQITSLYCLFSCSPSFLYFKKIQPLFFTFFFFLLSLFPS	52400
AETKCEGATTNHMKVEKREKKKRGEKAADKSKEERRSKRKEKQRKEGKTVRNG	6970
TGGLAELQDTLDDARASFAYVRVKYSNDKESQREKFILIVWIGKSVKVMRRAK	33600
GHGTHCSGTVAGKKYGVAKKASVYAVKVLRSNGSGTMSDVVKGVEYAAESHIK	7670
SGPSRERYFLFVFLGSFFWYFFPGYLFQALSWFSWVTWIWPHDTAIAQLFGYF	52100
LFSFLFPLLLFFSHSFFFYPFLCPLLLPPSLSFYLPLSLSSLSPIPCICFFSD	63200
HVQIASSDVIKRVSSRVAWCLKSILTILLNVNQLEMSVLRSRVLRLIVFFLHY	62300
MHKCCLLDFLMLSTNYADVFYFHKLCIILTSFFSRLNPLLSIGLNLLLFCLLI	57000
FSWVELCLSVTWWFFPACLLLSDTLVLVYLTPGLDVLVPFSMIFVYCFLGLPP	52300
DSKSDATPAWSDLKTKAGKERKRLPLACIVCRRKKIRCSGEKPACKHCLRARI	41900
AEKEAEPEKEAGSESPQKKITPMKRGRGRPKRGGGAAGASSPEPAAVVVVAER	14700
DDAAADLQEAQAGASKKNRKRNRKKNAQDGPAEEATPSKGARQGKKGKGWRET	12000
APSAARRSHTKSSPSSGTSPSGPPSARTSSRCTPPPRSSSPSGRRRSSCCKRS	45900
YTRVVTRFKRLFVSSRGYTAFIPALFKVFCDVEHLAPIRSAIVFAWCRFYAVH	67300

Sequence	transcriptional activation domain activity
GTGGLSELRDAFDDSKASYGYARVTYSNDKESQREKFILVVWIGSGCKVMRKG	36600
MRKTCRFICNVTRMRTVWIKALERVCARHGVFKPTFPLQRMSILDLEYASLGP	52200
GGNIHIRSLFIIAMVFLFFGLVLLTIGFFSDFRKSWFVWRLRTCWLWANGTRF	57800
EGGADGEEEEDGEEEVKEKVPAKRGRKPRGERVEEVSSPAAPVRGKKAKPTTA	41200
MVTIWDFFLGGWGWAFYIICLFFFLSFYFLSFFFFSLLSSFFFFGYSPSAVWV	29600
LVREHELLGVIICHLVKSNQSGLTDLEYLLNIVKKIDKYDNLLVHYFPALGAL	24500
PPSLVDLVANTIAACHSETTPETVSLQIVKALLSLVLSSTILVHHSSLLKAVR	50700
MGFLFLLCVLVVWVFFRAWFFRFLFSLVFLFWYFFIYFLWPWYGGVGRGLHSC	36100
MPLQLRCLYNCDVSLIVMLLLGLLLGIFPSLHIEICICSRDLLLICMGMWPVR	45500
NLMIIVLVVSNLRLMIENYRKYGVLICIQCHDYRQQDILYGLILYLLVPCHLF	39400
AAEKPAEEQPAETLVVEAKEVEEPKAAAKKGKKKAAKKEAEKVVEEQAVETPA	32500
TLRVSNLLCWFLLCLTSVPGLGIVYYTYFLLPDTPYCLWALCLYTKSFIAPLM	63000
PGEVSEAEANGDAPKADDAAAPESGEAAKPKKKKKKAAKKPKKEGEEGAAAAP	37700
RTTALGVWFLSIQFFWYALYGALYIWFFFMPWEKLSVLLAFDYFMRLLLCFMF	45700
MSFRFPTLFFFSLTLFLVSPFWFYLLFSVFFFLISLVFLESHFFCLGSINTLY	39800
MRGLCRSLKLCKLFVTMFDGWMMLFSFFFFFLFLLFFYYYSCCSDGFLLCFFL	42500
MLQVALYMRSSSLIISIWPRLSCSRFLLVLQLIVFSFHCQLVYSIYLMLLAFS	58300
MIVLVLLFLVFCLLLLVGMVDERGMAGDMYKLYRTPASCRVLALSNPIVRGAW	52800
RLAELCLLIDPRLLVKLAGVMARYIESMATYRAHPRQIYNRQCSVFNTSLKLF	62200
MLLRRAVSLGVEGFFIFFYFLLMGLHCICLRGSSPWVDMFLFFVFFVSLVGFF	72200
FHAWVSHIVQLNLFGLLSQTLMLIMFKLDVGTYFFLNDVILCKVYVFSLFVTL	65400

Sequence	transcriptional activation domain activity
TLTSPQGSDLASNSATQYKPDLEDFLMQNSNFNGLMINPSSLVEVVGGYNDPN	83200
KEEAESEAEASAPKGKKGTVKKPAAAAKAKDVDEPKAKRGRPKKTVAKDEVEN	< 6570
GDVAATDIGSKGGKKDGKRQKGSAAHVDGEDTSEDKKGAAKTGKRKKGGGAKE	27200
RLWLVRGPFTELFRRFLFSNIRFTSKVTIISYIGTYYAIGAAWIMTTANYLAI	47600
KHEREFEGNSNRDREVVQGKREGGGGERGGRGRGAGGGGERGRGRGNSGRGDG	12500
GNNKPRGNNQRGGARNVRNGAEAGDEEAPREQRDSRSSRGRGEGRGRGRGRGG	31700
MYVLAISQTRAWTNLNLFRSCMVGLVNLCVILLKMLPIVVFCTLWYNVDLNIP	73400
MVLLLLLDYNVFCHFNFAVHLYLLPFINKFKRIVLGHLIFLWNYLVQVVVVSP	67600
KVEIRERDARSVVKLRSGANVPVTESTHGLDGGTGQDVHILVAQTKSKKFNRH	49800
MQASFIFLSFTSGVIHTYILYLDLVAYFLLSLGGFVLIIGFWRWGFFFSFFPF	55400
ESLKHHEGINMVWKKFQSIFRIIEGIVYYEPVYRAFVRHILHHLHLDNVLWVD	70300
PRNSWIKWAFLFARYFPLLAGLCGRVIDSIVLYRQPIPIPLNALRIWYICQVL	52500
LFLMVAPYPSLLIVLVNHYLRTLDKPIAFVIHFLVIFTLKFLAFISLIVCVAR	75600
MSFKFFFCLLIPSFSLFKITYAWSYLMILEVVFSPFFSQVVVFVLFILHHFYH	53000
MFCLRSWIPVLFFLLRTHASPIYLVLFISATYFLNRPCVYCSLLLFILVVALF	61100
PQEPQKGEEEGGARGRPRCPRRRGGPKEEAAVPVEAPAVLAAEPVKADEPAAP	30200
EQSGNGDINNGTRNDIEINLYRSHPTMIMSKVMKREVKPLSENYIIIQDCFLK	62500
KDPWHIKALVAFVWILDVAHTILISCFVYTLTIVYYGRAQELLKFICLYILIL	45100
QENHNSSENGNENENEQDSLALDDLDRAFELVEGMDMDWMMPSHAHHSPATTA	123000
